From patent US9290794B2, “Mutant protease biosensors with enhanced detection characteristics” (PROMEGA CORPORATION, priority 2010, dated 2016)

Key:
caspase-3 [1] = assay: CBS expressed in E. coli, HisLink purification fractions, caspase-3 cleavage reaction; assay type: biochemical
Description: The CBS variant 1A5 was cloned into a bacterial expression vector (pFNA:HQ(5×):CBS:HT(7); SEQ ID NOs:73 and 74) containing HaloTag® (C-terminal to the CBS) and a 5×HQ tag (N-terminal to CBS). The fusion protein was expressed in E. coli as follows: E. coli (KRX) was transformed with the vector. A starter culture (50 mL, LB Broth) was inoculated from a single colony and grown for 17-22 hrs at 37° C. with shaking (275 rpm). The starter culture was diluted (1:50) into induction media (500 mL, LB Broth with 0.05% glucose and 0.02% rhamnose) and growth was continued for another 17-22 hrs at 25° C. with shaking (275 rpm). The culture was divided into two 250 mL aliquots, and cells were collected by centrifugation (5,000×g for 20 min at 4° C.). One cell pellet was re-suspended in Lysis Buffer (25 mL, 50 mM HEPES (pH 7.5), 0.2× FastBreak, 2 mM DTT, 0.05% CHAPS, 50 mM Arginine, 50 mM Glutamic acid, 0.2 mg/mL Lysozyme, 10 U/mL RQ1 DNase, and Protease Inhibitors (Beckton/Dickenson Cat. No. 544779)) and incubated on ice for 30 min. After incubation, the sample was sonicated (Misonix Sonicator-3000, 4 mM total, 5 sec on, 5 sec rest, Power Setting 5). The crude lysate was clarified by centrifugation (20,000×g for 20 min at 4° C.), and the supernatant (cleared lysate) was used as the CBS source. For the caspase-3 cleavage reaction, 20 μl of the cleared lysate was mixed with 20 μL E. coli lysate expressing caspase-3 (Example XII) and incubated at room temperature for 30 min. 60 μL HEPES pH 7.5 was added, followed by the addition of 100 μL Bright-Glo Assay Reagent. Luminescence was detected as previously described above (FIG. 20).
Briefly, 25 mL of cleared lysate was made 0.5 M in NaCl (final concentration) and applied to 2 mL of settled HisLink resin that had been equilibrated with Binding Buffer (100 mM HEPES (pH7.5), 10 mM Imidazole, 500 mM NaCl). The resin was washed with 12 mL of Binding Buffer followed by washing with Elution Buffer (100 mM HEPES (pH 7.5), 1000 mM Imidazole). 1.75 mL fractions were collected.
For SDS-PAGE gel analysis, samples were labeled with CA-TAM and analyzed as described previously (FIG. 21A). For caspase-3 cleavage reaction, 20 μl of each sample was mixed with 20 μL E. coli lysate expressing Caspase-3 (Example XII) and incubated at room temperature for 30 min. 60 μL HEPES pH 7.5 was added, followed by the addition of 100 μL Bright-Glo Assay Reagent. Luminescence was detected as previously described above (Table 10 and FIG. 21B).

caspase-3 [2] = assay: Purified HQ:CBS:HT from E. coli immobilized on solid support, activation by Caspase-3; assay type: biochemical
[3] = HisLink purification sample HSS
[4] = HisLink purification sample NSM
[5] = HisLink purification sample WASH

B1: HQ:CBS:HT: 5×HQ tag:CBS (variant 1A5):HaloTag fusion protein expressed in E. coli (SEQ ID NOs:73 and 74) (protein)
chain: MKHQHQHQAIAMPGSTGKIVPLHAVKVVDPTTGKILGPNEPGELYFKGPMIMKGYYNNEEATKAIIDNDGWLRSGDIAYYDNDGHFYIVDRLKSLIKYKGYQVAPAEIEGILLQHPYIVDAGVTGIPDEAAGELPAAGVVVQTGKYLNEQIVQDYVASQVSIAKWLRGGVKFLDEIPKGSTGKIDRKVLRQMLEKHTNGSDEVDGSLKNILYGPEPFYPLEDGTAGEQMFDALSRYAAIPGCIALTNAHTKENVLYEEFLKLSCRLAESFKKYGLKQNDTIAVCSENSLQFFLPVIASLYLGIIVAPVNDKYIERELIHSLGIVKPRIVFCSKNTFQKVLNVKSKLKSIETIIILDLNEDLGGYQCLNNFISQNSDSNLDVKKFKPYSFNRDDQVASIMFSSGTTGLPKGVMLTHKNIVARFSIAKDPTFGNAINPTSAILTVIPFHHGFGMMTTLGYFTCGFRVVLMHTFEEKLFLQSLQDYKVESTLLVPTLMAFLAKSALVEKYDLSHLKEIASGGAPLSKEIGEMVKKRFKLNFVRQGYGLTETTSAVLITPKGVSLEPTTEDLYFQSDNDGSEIGTGFPFDPHYVEVLGERMHYVDVGPRDGTPVLFLHGNPTSSYVWRNIIPHVAPTHRCIAPDLIGMGKSDKPDLGYFFDDHVRFMDAFIEALGLEEVVLVIHDWGSALGFHWAKRNPERVKGIAFMEFIRPIPTWDEWPEFARETFQAFRTTDVGRKLIIDQNVFIEGTLPMGVVRPLTEVEMDHYREPFLNPVDREPLWRFPNELPIAGEPANIVALVEEYMDWLHQSPVPKLLFWGTPGVLIPPAEAARLAKSLPNCKAVDIGPGLNLLQEDNPDLIGSEIARWLSTLEISG
- BASAL luminescence (caspase-3 [1]; HisLink elution fraction E1): 4,221
- INDUCED luminescence (caspase-3 [1]; HisLink elution fraction E1): 2,951,899
- RESPONSE (caspase-3 [1]; HisLink elution fraction E1): 699
- BASAL luminescence (caspase-3 [1]; HisLink elution fraction E2): 193,268
- INDUCED luminescence (caspase-3 [1]; HisLink elution fraction E2): 40,913,496
- RESPONSE (caspase-3 [1]; HisLink elution fraction E2): 212
- BASAL luminescence (caspase-3 [1]; HisLink elution fraction E3): 18,454
- INDUCED luminescence (caspase-3 [1]; HisLink elution fraction E3): 3,287,059
- RESPONSE (caspase-3 [1]; HisLink elution fraction E3): 178
- BASAL luminescence (caspase-3 [1]; HisLink elution fraction E4): 1,130
- INDUCED luminescence (caspase-3 [1]; HisLink elution fraction E4): 215,580
- RESPONSE (caspase-3 [1]; HisLink elution fraction E4): 191
- BASAL luminescence (caspase-3 [1]; HisLink elution fraction E5): 270
- INDUCED luminescence (caspase-3 [1]; HisLink elution fraction E5): 48,068
- RESPONSE (caspase-3 [1]; HisLink elution fraction E5): 178
- BASAL luminescence (caspase-3 [1]; [3]): 301,304
- INDUCED luminescence (caspase-3 [1]; [3]): 12,875,742
- RESPONSE (caspase-3 [1]; [3]): 43
- BASAL luminescence (caspase-3 [1]; [4]): 176,259
- INDUCED luminescence (caspase-3 [1]; [4]): 5,822,003
- RESPONSE (caspase-3 [1]; [4]): 33
- BASAL luminescence (caspase-3 [1]; [5]): 7,734
- INDUCED luminescence (caspase-3 [1]; [5]): 3,706,541
- RESPONSE (caspase-3 [1]; [5]): 479
- BASAL luminescence (caspase-3 [2]; column HaloLink-Plate): 6,880
- INDUCED luminescence (caspase-3 [2]; column HaloLink-Plate): 661,597
- RESPONSE (caspase-3 [2]; column HaloLink-Plate): 96
- BASAL luminescence (caspase-3 [2]; column HisLink): 193,268
- INDUCED luminescence (caspase-3 [2]; column HisLink): 40,913,496
- RESPONSE (caspase-3 [2]; column HisLink): 212
